Data taken from the DeepSol protein solubility set.

Assay: soluble on expression in E. coli; label from the status in PepcDB or PDB records

Soluble on expression in E. coli, not soluble:
KQPKKSQPDLFYATDGTPILVGKNNLQNDQLTLRTAKKTDYWLHAKDIPGSHVIIRDAHPSEETLTEAALLAAYFSKYRLSSQVPVDYVQVKHVHK
MPAENSVEVHRLRKSVGQGEHELSILTGVELVVKRGETIALIGESGSGKSTLLAILAGLDDGSSGEVSLVGKPLHQMDEEARAQLRAQHVGFVFQSFMLIPTLNALENVELPALLRGENSGQSKAGAKALLEQLGLGKRLDHLPAQLSGGEQQRVALARAFNGRPDVLFADEPTGNLDRQTGDKIADLLFSLNREHGTTLILVTHDPALAARCDRRLRLVNGQLQEEA
AFSSTTTLTPSNVASREFIDTRAPNPEICVQYGASAMVMDARLFVTLNPFNVYVAQPNIRPGCVLRQNNWAILENKKLVTSDQVRECKNRLNTFGFTGNLDSEKPDIRCIYQNESAQNFFLSQPGAVGPSQDTERF
MLPHSGRMVLIDRITRYGDDFVEAGAQVKPDHILLAGGMLPYTAFIELMAQAVGAYAGIQARKNARPVRLGFLPGTRKLEIFAQSVPVGTHLPATAHMSIQDAGVWACPTANCVGRMRRKLRPEHSFQTAFWHAPHSTCTAPNTMTEQLTPSEQAHIRRTTMTETVLITGSNRGIGKAAALEHHHHHH
MGSDKIHHHHHHMANPQSPHATLQLPQGMEITAEIKPGYDAILTREALELVAALHRTFEPRRQQLLQARAERTKRLDAGERPDFLAETKSVREGDWKIAPLPQDLQCRRVEITGPVERKMIINALNSGADSYMTDFEDSNAPSWDNQITGHINLKDAVRRTISLEQNGKSYALNDKVATLIVRPRGWHLDEKHVKVDGKRVSGSIFDFALFMVHNAKELLARGSGPYFYLPKMESHLEARLWNDIFVAAQEAVGVPRGTIRATVLIETILAAFEMDEILYELREHSSGLNAGRWDYIFSAIKKFKSDRDFCLADRSQITMTSPFMRAYALLLLKTCHRRNAPAIGGMSALIPIRNDPAANDKAMAGVRSDKARDAGDGYDGGWVAHPGLVAIAMEEFVKVLGDKPNQIGKQRDDVLVTATDLLDFRPETPITENGLRNNINVGIHYLGAWLTGNGCVPIHNLMEDAATAEISRSQVWQWIRSPKGKLDDGRKVTAELVRAMSAQELDKVKQAVGGDTKPYERAAQIFEEMSTSEQFTDFLTLPLYEEI
MGSDKIHHHHHHMARLRVYELARKLNMSPKELLQELEELGVNVKSHMSYVDEEMANIIIDLLEEDNRKAKQPSKPKKEKGEEEVEKEVVEKKKKKKITLKPDELKLDIIAEKIGVPQNKIIQDMFVKRGIALRPGQILKLEEVEQILKEYKIEIEIEEEQQTSVEEVDEFELLEKRYQELYEKEKDKLVPRPPVVTVMGHVDHGKTTLLDRIRSTRVAEREEGGITQSIGAYQVEVNGKKITFIDTPGHELFTEMRARGAQATDIVVLVVAADDGVMPQTIEAYNHAKAANVPIIVAINKIDKPNANVEKTKQELVEKLGLIPEEWGGDTIVVPISARTGQGVDELLEMILLVAEMNEIKCYPEGPARAVIIESKLDKKMGPVASAIVKDGVLKVGDAVVASNTYGRVRNLFDDNMRPIREAYPSQPVMILGFEDVPDVHSNVYVVESAEKAKEIVEKRLQRLEAQKQSRKHINLEELMKMMQEKEKKVLNLILKADTYGSVAALKNAINKLQSKEIELNIVHAGVGEISTSDVMLAAAVDGVILGFRVKVNNQARRLAEQEGVDVRTYSIIYKLVEDLKLALEGMLEPEEVEEVIGHGEIRKVFKISKVGKVAGVQMLDGKADRNGFVRIYRNGQLVFGGKIESLKHYKEDVSVVEAPQECGIKFAGFDDIHEGDELEFYVIRKVKRKPTFVEEQADQEQK
MTTFILSHNLQVQSKDVPPFETQVLADGIVSNSSAIISATVIQHPHWIIELTSNLPPNDMAVELVKSWKQLRSKLGQSADHVILALGGRKDSLAAPGAPLQEGFWGVDVVETHDEEAFLQAINWDALKSNRPEDGVFEISSNN
MGSDKIHHHHHHMSLCYEEALFLEKDLERLKALRTIAPMNEILDHAEVAALAEGIGKAVLGETITQVIDDYRKQLLGDKSFAASMSHLSRQEITLHLVQELKDKLDAQDSTCLKKLINATGIVLHTNLGRAPLPDSAIGLIQEVNEGYSNLEFDLETGNRGSRHTHIEPLITRLTGAESAMVVNNNAAAVFISLNTLAKQRDVIISRGQQVEIGGSFRIPDIIASSGCTMIEVGTTNKTKPDDYAKAITENTAVLLKVHTSNYKISGFTEEVPLQDLVELGKIKNVLVMEDLGSGCLYDLSKIGLPHEPTVQEVIAGGADLVTFSGDKLLGGPQIGVIAGKKALIDKIKKNSFARIVRCDKSSIAALTAVLKLYMNPEKALAQIPALNMLALKEADLLLRAEELERQLQAALGERCQVEIVDVHDEAGGGSLPDVLLKGKAVSLTIDGLSANRLQELLRQEPIPIICRIVKDKVLLNVRTMSEKEFPLITQTMQNIVG
MMSAVERRMEIVNVVNQDGKARVEDLAARFDVSSVTIRSDLSFLEKNGYVVRSHGAAIPNTGVIAELTVHEKRHQNIGTKSSIGYAAAQLIENGDTVILDSGTTTREIASNLKSLEQAVVMTNGLDVAMELASASGIEVLMSGGVLRKKALSFSGSQAEASLKNYRFDKVFLGVDGFDLRSGITTHNEQEASLNRLMCDISEQVIAVADSTKFGKRSCHMIREFGNIDILVTDSDIPEEYLQGLREMKVEVIIVEKEK
MGSDKIHHHHHHMNLLEVKSLKARFKRGGFALESVNLTLKKGECVSIVGESGSGKSFLAQLIVRLFPQGSVEVEEGEILFLGENLLDFSQERLEGVRGSEIGFVFQEPLISLNPLHTIEKQLAEAILLHRSLSREELKREIGALYASVGLEALKGRAKIYPHELSGGQRQRVMIAMALANSPKLLIADEPTTALDVSVQKQILDLLFRLKEERGVSLLLISHDLGVVRHYADKVYVMKGGKVVESASKEELFAHPKHPYTQALLSSLHLPLKESPPSRGEILLEAENLDLSFVLKKDWLGRPKEYLRALSSISLRLREGENLGIVGESGSGKSTLALALCKLLSFEGRLRMGHEEMAKMEESRFRPFRSMIQIVFQDPYGSLSPRLSIEEILREGLEVHFPAQKESFERRIIEALEGVGLESSYRYRYPNELSGGQRQRVAIARALILRPKILILDEPTSALDRSIEHQVVALLLELQKRYNLTYLCISHDLRVIGALSDRVAVMKGGRLIEEGETSLILQSPTHPYTQELIGSLLL
MGSDKIHHHHHHAPKGAEARMIATVDAEQARTLRFLEVMVNQNSGSRNLEGVRRLRDIVVPEFTALGFTSRWIPMERTGRAGHLVLTHKGRQGAKKLLLIGHLDTVFEPDSPFQTYVLNGEKATGPGVGDDKGGIAVILAAVRAMNAAGTLKGASIEVFLTGDEEEAGSPTEVARADLVAAARAADVALDFEGLSRENGRDMGSIARRSSQSWSLTVEAKSGHSSGVWGANAGDGAIYAAAKIVNAFRTELPEPWLTLNVGLIAGGAEAEVAEDNAHVSAQGKTNIIPGEVIARGDLRTLSPEQNRAAMRKMEEIVGRPYPGVTSARIAFSEGYPPMAPTEGNKALLARLNQVNATLGLPEMQPLDPMKRGAGDISFVAEYIDGLVGLGPHSTGDHAPGETVDVPSIWTQAKRAALLMTRLSAEKSAR

Soluble on expression in E. coli, soluble:
MRVLFIGDVFGQPGRRVLQNHLPTIRPQFDFVIVNMENSAGGFGMHRDAARGALEAGAGCLTLGNHAWHHKDIYPMLSEDTYPIVRPLNYADPGTPGVGWRTFDVNGEKLTVVNLLGRVFMEAVDNPFRTMDALLERDDLGTVFVDFHAEATSEKEAMGWHLAGRVAAVIGTHTHVPTADTRILKGGTAYQTDAGFTGPHDSIIGSAIEGPLQRFLTERPHRYGVAEGRAELNGVALHFEGGKATAAERYRFIED
GPGSMRGKRFATPTGQPGMRQGGYTQLHAVSASTSPGRRPTAKHCAPSASQKELFTSQALSRPRPTEAHALSSSTPERRFQAVQRSSTQSSMPSTSVHHMLNELVDLSHSIAALLEQGQVLSLTAAPSAADRQQEASLKTQEIERIVRRVEAHFVDRIQSLETLNASLSEEVRQLRGALATQRTNGAEGRANVVQDIRGGDLQEDSKTLDACERASWDEPGNGAASSEVEHLRRVLMAEKRQRLRVEEQTQSLTEQHAKVVGTLERRLKKQEEQLYDLIAAIDRGYGGGSVTTSASPTRCTERGSSHRLPTPRHLLRQQLAQHQQTQRALQQYKENLRLEPPSPAGSDEVSATMKELGLDDVRRTLELIRSSKPLTVQEHHHDQEETHTAPAVCSPPHTARDGPAVVHSPRVCSQVPPPAADRAACTSGTEVDEITAFLENITKELESLDSQ
MSLARNLKADKTKTIGVIVRDITGFDTSRTIRGVDDFCKGCDYNALIYNTDFDPETEAKSLEALYQMRVDGIIIASSGQNNTLISEYIDKGMPIVHFQLEHDGSEKNLILSDYRQAAFDATEYLIKLGHKRICFMTQDFKNVKSRNERYSGYVAALKKYDIVQDPALIQYWQRETGFDHSPKSVLESAAAPTAFFTQHLAITTELLTHLNQENITIPDDVSLIGFDDIPMAEFFKVPVTVIKQEPYIIGKEAAKLLLEKVNDKNRHSQKIMISCSITERQSCTEGHHHHHH
MTSSSTPRHRGIFPVVPTTFADTGDLDLASQKRAVDFMIDAGSDGLCILANFSEQFAITDDERDVLTRTILEHVAGRVPVIVTTSHYSTQVCAARSLRAQQLGAAMVMAMPPYHGATFRVPEAQIFEFYARVSDAIAIPIMVQDAPASGTALSAPFLARMAREIEQVAYFKIETPGAANKLRELIRLGGDAIEGPWDGEEAITLLADLHAGATGAMTGGGFPDGIRPILEAWREGRHDDAYARYQAWLPLINHENRQSGILTAKALMREGGVIASERPRHPMPELHPDTRAELLAIARRLDPLVLRWAH
MHHHHHHSSGVDLGTENLYFQSMGKVKATPMTPEQAMKQYMQKLTAFEHHEIFSYPEIYFLGLNAKKRQGMTGGPNNGGYDDDQGSYVQVPHDHVAYRYEVLKVIGKGSFGQVVKAYDHKVHQHVALKMVRNEKRFHRQAAEEIRILEHLRKQDKDNTMNVIHMLENFTFRNHICMTFELLSMNLYELIKKNKFQGFSLPLVRKFAHSILQCLDALHKNRIIHCDLKPENILLKQQGRSGIKVIDFGSSCYEHQRVYTYIQSRFYRAPEVILGARYGMPIDMWSLGCILAELLTGYPLLPGEDEGDQLACMIELLGMPSQKLLDASKRAKNFVSSKGYPRYCTVTTLSDGSVVLNGGRSRRGKLRGPPESREWGNALKGCDDPLFLDFLKQCLEWDPAVRMTPGQALRHPWLRRRLPKPPTGEKTSVKR
GPQKRCLFVCRHGERMDVVFGKYWLSQCFDAKGRYIRTNLNMPHSLPQRSGGFRDYEKDAPITVFGCMQARLVGEALLESNTVIDHVYCSPSLRCVQTAHNILKGLQQDNHLKIRVEPGLFEWTKWVAGSTLPAWIPPSELAAANLSVDTTYRPHIPVSKLAISESYDTYINRSFQVTKEIISECKSKGNNILIVAHASSLEACTCQLQGLSPQNSKDFVQMVRKIPYLGFCSCEELGETGIWQLTDPPILPLTHGPTGGFNWRETLLQE
MSLEQDKYLTVAAITKYIEKKFEVDPYMKQVFVRGEISNLKQPASGHLYFTVKDEFAMLRSVMFHKAVQKIGFVPEDGMNVLVTGRIGVFTKAGRYQFYAEHMEPDGVGALYIQLEQLKAQLEKEGLFAETHKKVLPSFPSKVAVVTSKTGAAVRDILTTIHRRMPSVEVIVYPTIVQGEKAAQKIVENIGKINQRNDIDVMIIGRGGGSLEELWAFNEEPVVRAVYDSDVPVISAVGHETDFALSDFSADVRAATPTAAAELAVPDYRDLEERLAERKYRLLAVTRQALERKERSLEQLKQHLILNGPKHQLEQQMERTDYFSERLNNAFSKQIFVKQTAFDRLNDRLHYYHPNKEIELQKEQMTLHLQALDKAMKQLLKDKQQSFFRQVDALEHLSPLSLLKRGFGVTYKENTLVKSVQELEVGDNIQVKMQGGHIDALITAKEEDISGNEGHHHHHH
